Data reported in PMC2878840.

How the values were obtained:
[1] = ZO-1 immunoprecipitation, Western blot; details: glycan lost; control: wild type E-cadherin (E-cad-myc)
[2] = TER of confluent monolayers on Transwells; details: glycan lost; control: wild type E-cadherin (E-cad-myc)
[3] = anti-CNX Western blot normalised to actin; details: glycan lost; control: mock-transfected cells
[4] = confocal immunofluorescence, x-z sections; details: glycan lost; control: wild type E-cadherin
[5] = Western blot normalised to ZO-1 or claudin-1; details: glycan lost; control: wild type E-cadherin (E-cad-myc)

B1: E-cadherin: V13 (protein)
parent chain: MGPWSRSLSALLLLLQVSSWLCQEPEPCHPGFDAESYTFTVPRRHLERGRVLGRVNFEDCTGRQRTAYFSLDTRFKVGTDGVITVKRPLRFHNPQIHFLVYAWDSTYRKFSTKVTLNTVGHHHRPPPHQASVSGIQAELLTFPNSSPGLRRQKRDWVIPPISCPENEKGPFPKNLVQIKSNKDKEGKVFYSITGQGADTPPVGVFIIERETGWLKVTEPLDRERIATYTLFSHAVSSNGNAVEDPMEILITVTDQNDNKPEFTQEVFKGSVMEGALPGTSVMEVTATDADDDVNTYNAAIAYTILSQDPELPDKNMFTINRNTGVISVVTTGLDRESFPTYTLVVQAADLQGEGLSTTATAVITVTDTNDNPPIFNPTTYKGQVPENEANVVITTLKVTDADAPNTPAWEAVYTILNDDGGQFVVTTNPVNNDGILKTAKGLDFEAKQQYILHVAVTNVVPFEVSLTTSTATVTVDVLDVNEAPIFVPPEKRVEVSEDFGVGQEITSYTAQEPDTFMEQKITYRIWRDTANWLEINPDTGAISTRAELDREDFEHVKNSTYTALIIATDNGSPVATGTGTLLLILSDVNDNAPIPEPRTIFFCERNPKPQVINIIDADLPPNTSPFTAELTHGASANWTIQYNDPTQESIILKPKMALEVGDYKINLKLMDNQNKDQVTTLEVSVCDCEGAAGVCRKAQPVEAGLQIPAILGILGGILALLILILLLLLFLRRRAVVKEPLLPPEDDTRDNVYYYDEEGGGEEDQDFDLSQLHRGLDARPEVTRNDVAPTLMSVPRYLPRPANPDEIGNFIDENLKAADTDPTAPPYDSLLVFDYEGSGSEAASLSSLNSSESDKDQDYDYLNEWGNRFKKLADMYGGGEDD
other: claudin-1 in ZO-1 complexes [1]: increases
other: transepithelial resistance [2]: increases
other: calnexin expression (UPR marker) [3]: no change
other: apical localisation of gp135 and ZO-1 [4]: increases
other: Ser-phosphorylation of ZO-1 and claudin-1 [5]: increases
